The term koff denotes the rate constant with which the complex falls apart. The term Kd denotes the equilibrium constant for the complex coming apart.

Holding throughout (test): SPR
On the technique in general: SPR reads the build-up and loss of mass on a sensor chip optically.

The target in assay [1] is recombinant human laminin-521 (human, UniProt O15230 36-3695; P55268 33-1798; P11047 34-1609).
Assay [2] deals with T1, recombinant laminin LAMA3_(2928–3150) protein (human, UniProt Q16787 2928-3150).
T1 chain: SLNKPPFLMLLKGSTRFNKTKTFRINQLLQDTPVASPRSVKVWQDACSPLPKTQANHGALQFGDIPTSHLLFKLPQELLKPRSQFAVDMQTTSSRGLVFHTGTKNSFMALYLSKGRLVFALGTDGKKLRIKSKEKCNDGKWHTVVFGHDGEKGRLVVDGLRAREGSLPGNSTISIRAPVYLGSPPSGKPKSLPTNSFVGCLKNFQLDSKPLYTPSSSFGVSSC

The target of assay [3] is T1, recombinant laminin LAMA3_(2928–3150) ….

B1: placental growth factor (PlGF)-2 (ligand)
chain: LPAVPPQQWALSAGNGSSEVEVVPFQEVWGRSYCRALERLVDVVSEYPSEVEHMFSPSCVSLLRCTGCCGDENLHCVPVETANVTMQLLKIRSGDRPSYVELTFSQHVRCECRPLREKMKPERRRPKGRGKRRREKQRPTDCHLCGDAVPRR
Consider B1, for which the koff in assay [1] was found to be 0.0246 s⁻¹.

B2: vascular endothelial cell growth factor VEGF-A165 (ligand)
chain: APMAEGGGQNHHEVVKFMDVYQRSYCHPIETLVDIFQEYPDEIEYIFKPSCVPLMRCGGCCNDEGLECVPTEESNITMQIMRIKPHQGQHIGEMSFLQHNKCECRPKKDRARQENPCGPCSERRKHLFVQDPQTCKCSCKNTDSRCKARQLELNERTCRCDKPRR
On to B2, for which the koff in assay [2] was 0.00663 s⁻¹; in assay [1] it was 0.00324 s⁻¹. The Kd in assay [3] turned out to be 1.47 nM.

B3: platelet-derived growth factor PDGF-BB (ligand)
chain: SLGSLTIAEPAMIAECKTRTEVFEISRRLIDRTNANFLVWPPCVEVQRCSGCCNNRNVQCRPTQVQLRPVQVRKIEIVRKKPIFKKATVTLEDHLACKCETVAAARPVT
For B3, the koff in assay [2] was 0.0136 s⁻¹; in assay [1] it was 0.00497 s⁻¹. The Kd in assay [3] was found to be 12.1 nM.
